{"source": "paper PMC3923860", "test_system": "H1-CΔ97 (histone H1o lacking C-terminal domain) (mouse)", "assay": "EMSA", "settings": "no competitor DNA; EMSA: 50 mM NaCl, 25 mM Tris-HCl pH 7.5, 1 mM EDTA, 1 mM DTT, 100 ug/ml acetylated BSA, 3% glycerol; 30 min on ice; gels 0.5x TBE, 4 C", "note": "pKd: −log10 of the molar value."}
{"substance": "hemicatenated DNA loops (hcDNA)", "values": [{"measurement": "pKd", "result": 7.46}]}
